Test results from publication PMC9974451, “Transportin 1 is a major nuclear import receptor of the nitric oxide synthase interacting protein” (The Journal of Biological Chemistry, 2023).

Tests used:
Conditions in all cases: both partners purified
[1] = target: RanQ69L (aa 1-180) loaded with GTP (UniProt P62826 1-180, Q69L); experiment: pull-down; GST-M9 or GST-NOSIP immobilised on glutathione Sepharose beads, MBP-tagged TNPO1 FL, ΔN or ΔC, with or without RanQ69L(1-180)-GTP; Coomassie
[2] = target: T1, His-S-importin β (full length) (UniProt Q14974 1-876); experiment: pull-down; 100 pmol His-NOSIP-MBP (WT or K78A/K79A) or MBP immobilised on amylose beads, 100 pmol purified His-tagged NTR, with or without 300 pmol RanQ69L(1-180)-GTP, 3 h, 4 °C, TPB; SDS-PAGE, Coomassie
T1 construct: called full-length importin β (FL) in the fragment experiment; the ΔN fragment ends at aa 876; also called His-importin β; S-His-importin β

[3] = target: T1, His-S-importin β (full length); experiment: pull-down; 100 pmol GST-IBB, GST-NOSIP or GST immobilised on glutathione Sepharose beads, 100 pmol His-S-tagged importin β FL, ΔN or ΔC; Western blot with anti-importin β
[4] = target: T2, importin β ΔC (aa 1-396), His-S-tagged (UniProt Q14974 1-396); experiment: as above
T2 construct: also called Imp β ΔC; N-terminal (ΔC) fragment

[5] = target: T1, His-S-importin β (full length); experiment: pull-down; competition: 100 pmol His-S-importin β immobilised on S-protein beads, 100 pmol His-NOSIP with 0, 100, 300, 1000 pmol His-importin α, or the other way around; Coomassie
[6] = target: T3, His-TNPO1 (transportin 1) (UniProt Q92973-2 1-890); experiment: differential scanning fluorimetry; His-tagged NTR at 0.5 μM in TPB with 2 mM DTT, His-NOSIP or Ubc9 titrated in 18 steps from 0.05 to 5 μM, 5x SYPRO Orange, 25 to 90 °C; Tm plotted against concentration, exponential fit
T3 construct: transportin 1; The length 890 is printed for the MBP construct only; also called His-transportin 1
T3 sequence (looked up): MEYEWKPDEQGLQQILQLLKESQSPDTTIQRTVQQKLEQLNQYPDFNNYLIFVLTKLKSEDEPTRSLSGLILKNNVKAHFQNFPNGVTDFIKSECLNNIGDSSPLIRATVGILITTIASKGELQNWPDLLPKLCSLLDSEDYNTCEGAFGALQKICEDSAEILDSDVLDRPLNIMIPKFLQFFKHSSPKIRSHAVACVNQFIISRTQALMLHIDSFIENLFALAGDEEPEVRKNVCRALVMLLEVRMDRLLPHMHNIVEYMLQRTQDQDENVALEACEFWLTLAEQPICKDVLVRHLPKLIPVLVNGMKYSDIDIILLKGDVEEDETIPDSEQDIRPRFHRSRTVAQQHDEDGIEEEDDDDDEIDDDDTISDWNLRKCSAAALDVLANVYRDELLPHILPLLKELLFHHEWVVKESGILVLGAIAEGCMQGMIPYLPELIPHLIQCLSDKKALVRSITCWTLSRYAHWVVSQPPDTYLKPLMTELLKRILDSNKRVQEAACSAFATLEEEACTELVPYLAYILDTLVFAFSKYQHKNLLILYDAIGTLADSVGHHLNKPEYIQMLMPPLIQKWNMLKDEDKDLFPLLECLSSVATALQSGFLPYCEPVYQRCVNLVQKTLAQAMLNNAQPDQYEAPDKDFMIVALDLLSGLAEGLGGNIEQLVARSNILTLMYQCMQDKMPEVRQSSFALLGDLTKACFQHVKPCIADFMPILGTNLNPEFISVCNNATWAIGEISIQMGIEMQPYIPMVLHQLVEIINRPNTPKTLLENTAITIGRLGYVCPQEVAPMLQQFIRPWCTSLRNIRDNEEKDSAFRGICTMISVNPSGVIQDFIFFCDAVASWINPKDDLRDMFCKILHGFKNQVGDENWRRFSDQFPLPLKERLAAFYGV

His-importin 13 = target: T4, His-importin 13 (UniProt O94829 1-963); experiment: as above
T4 construct: importin 13; also called Imp 13; His-Imp13; source: E. coli JM109, purified (Ni-NTA agarose, size exclusion chromatography)
T4 sequence (looked up): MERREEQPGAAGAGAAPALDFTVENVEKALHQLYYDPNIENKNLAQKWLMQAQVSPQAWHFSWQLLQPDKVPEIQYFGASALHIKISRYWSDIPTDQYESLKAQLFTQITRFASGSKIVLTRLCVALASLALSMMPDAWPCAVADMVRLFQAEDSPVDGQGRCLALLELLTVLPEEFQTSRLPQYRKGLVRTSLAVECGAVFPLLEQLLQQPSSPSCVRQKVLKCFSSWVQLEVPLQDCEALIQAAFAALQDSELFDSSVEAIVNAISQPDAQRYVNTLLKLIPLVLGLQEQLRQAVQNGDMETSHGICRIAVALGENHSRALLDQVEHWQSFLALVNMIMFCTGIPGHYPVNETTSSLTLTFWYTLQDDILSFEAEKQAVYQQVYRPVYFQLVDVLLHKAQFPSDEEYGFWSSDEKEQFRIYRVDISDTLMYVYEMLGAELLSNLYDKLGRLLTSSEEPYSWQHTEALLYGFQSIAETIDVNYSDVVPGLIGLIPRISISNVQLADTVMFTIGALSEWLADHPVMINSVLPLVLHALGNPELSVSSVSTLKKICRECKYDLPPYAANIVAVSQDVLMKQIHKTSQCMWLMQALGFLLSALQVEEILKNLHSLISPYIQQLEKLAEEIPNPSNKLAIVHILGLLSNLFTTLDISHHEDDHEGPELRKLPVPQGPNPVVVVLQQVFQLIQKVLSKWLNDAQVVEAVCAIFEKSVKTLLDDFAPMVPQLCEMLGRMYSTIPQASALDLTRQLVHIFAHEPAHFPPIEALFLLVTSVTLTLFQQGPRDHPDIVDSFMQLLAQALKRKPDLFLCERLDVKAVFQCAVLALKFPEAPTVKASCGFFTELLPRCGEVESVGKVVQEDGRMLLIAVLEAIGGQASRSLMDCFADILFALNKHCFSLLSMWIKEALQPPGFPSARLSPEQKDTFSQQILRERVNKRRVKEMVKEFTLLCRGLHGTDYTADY

T1 sequence (Q14974 whole entry, the tested form may be a part): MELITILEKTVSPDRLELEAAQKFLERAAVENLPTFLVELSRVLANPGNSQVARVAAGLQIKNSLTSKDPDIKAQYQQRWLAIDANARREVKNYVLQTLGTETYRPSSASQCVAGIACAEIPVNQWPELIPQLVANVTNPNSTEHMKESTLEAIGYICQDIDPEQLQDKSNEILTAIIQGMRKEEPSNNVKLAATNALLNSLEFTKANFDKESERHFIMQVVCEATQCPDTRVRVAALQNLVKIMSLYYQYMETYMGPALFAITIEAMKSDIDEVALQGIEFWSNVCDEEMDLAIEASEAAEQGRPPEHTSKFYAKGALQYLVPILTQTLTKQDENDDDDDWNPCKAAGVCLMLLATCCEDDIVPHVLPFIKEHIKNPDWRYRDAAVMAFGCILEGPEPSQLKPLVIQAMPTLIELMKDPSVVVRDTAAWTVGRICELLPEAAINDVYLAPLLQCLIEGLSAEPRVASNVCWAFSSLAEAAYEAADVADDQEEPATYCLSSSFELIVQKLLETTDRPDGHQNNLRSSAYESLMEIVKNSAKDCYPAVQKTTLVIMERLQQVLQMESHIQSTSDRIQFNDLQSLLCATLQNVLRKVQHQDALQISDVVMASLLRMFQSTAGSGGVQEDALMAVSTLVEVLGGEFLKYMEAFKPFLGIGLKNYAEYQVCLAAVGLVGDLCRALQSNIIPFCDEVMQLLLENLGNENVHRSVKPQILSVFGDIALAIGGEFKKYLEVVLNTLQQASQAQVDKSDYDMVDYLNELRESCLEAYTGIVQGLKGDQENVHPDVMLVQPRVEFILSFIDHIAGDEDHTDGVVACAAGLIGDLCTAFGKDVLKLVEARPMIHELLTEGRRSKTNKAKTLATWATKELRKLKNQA
T2 sequence (Q14974 1-396, stated change not applied): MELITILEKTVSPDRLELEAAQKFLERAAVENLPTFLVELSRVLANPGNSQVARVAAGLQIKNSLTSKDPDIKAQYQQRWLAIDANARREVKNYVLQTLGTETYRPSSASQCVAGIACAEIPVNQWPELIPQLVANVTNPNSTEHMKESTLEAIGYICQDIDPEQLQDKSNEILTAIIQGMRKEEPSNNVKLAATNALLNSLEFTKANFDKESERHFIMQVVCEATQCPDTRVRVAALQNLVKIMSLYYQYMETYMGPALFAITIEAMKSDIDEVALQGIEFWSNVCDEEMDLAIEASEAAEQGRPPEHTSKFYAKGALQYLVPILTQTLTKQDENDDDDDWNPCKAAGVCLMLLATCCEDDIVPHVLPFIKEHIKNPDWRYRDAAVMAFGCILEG

B1: MBP-TNPO1 FL (aa 1-890) (natural protein)
chain: MEYEWKPDEQGLQQILQLLKESQSPDTTIQRTVQQKLEQLNQYPDFNNYLIFVLTKLKSEDEPTRSLSGLILKNNVKAHFQNFPNGVTDFIKSECLNNIGDSSPLIRATVGILITTIASKGELQNWPDLLPKLCSLLDSEDYNTCEGAFGALQKICEDSAEILDSDVLDRPLNIMIPKFLQFFKHSSPKIRSHAVACVNQFIISRTQALMLHIDSFIENLFALAGDEEPEVRKNVCRALVMLLEVRMDRLLPHMHNIVEYMLQRTQDQDENVALEACEFWLTLAEQPICKDVLVRHLPKLIPVLVNGMKYSDIDIILLKGDVEEDETIPDSEQDIRPRFHRSRTVAQQHDEDGIEEEDDDDDEIDDDDTISDWNLRKCSAAALDVLANVYRDELLPHILPLLKELLFHHEWVVKESGILVLGAIAEGCMQGMIPYLPELIPHLIQCLSDKKALVRSITCWTLSRYAHWVVSQPPDTYLKPLMTELLKRILDSNKRVQEAACSAFATLEEEACTELVPYLAYILDTLVFAFSKYQHKNLLILYDAIGTLADSVGHHLNKPEYIQMLMPPLIQKWNMLKDEDKDLFPLLECLSSVATALQSGFLPYCEPVYQRCVNLVQKTLAQAMLNNAQPDQYEAPDKDFMIVALDLLSGLAEGLGGNIEQLVARSNILTLMYQCMQDKMPEVRQSSFALLGDLTKACFQHVKPCIADFMPILGTNLNPEFISVCNNATWAIGEISIQMGIEMQPYIPMVLHQLVEIINRPNTPKTLLENTAITIGRLGYVCPQEVAPMLQQFIRPWCTSLRNIRDNEEKDSAFRGICTMISVNPSGVIQDFIFFCDAVASWINPKDDLRDMFCKILHGFKNQVGDENWRRFSDQFPLPLKERLAAFYGV
notes: transportin 1, full length printed as aa 1-890 (890 residues); also called full-length TNPO1; source: E. coli BL21DE3, purified (amylose resin, size exclusion chromatography)
[1]
  binding result: binds

B2: His-NOSIP-MBP (nitric oxide synthase interacting protein) (natural protein, UniProt Q9Y314 1-301, looked up)
chain: MTRHGKNCTAGAVYTYHEKKKDTAASGYGTQNIRLSRDAVKDFDCCCLSLQPCHDPVVTPDGYLYEREAILEYILHQKKEIARQMKAYEKQRGTRREEQKELQRAASQDHVRGFLEKESAIVSRPLNPFTAKALSGTSPDDVQPGPSVGPPSKDKDKVLPSFWIPSLTPEAKATKLEKPSRTVTCPMSGKPLRMSDLTPVHFTPLDSSVDRVGLITRSERYVCAVTRDSLSNATPCAVLRPSGAVVTLECVEKLIRKDMVDPVTGDKLTDRDIIVLQRGGTGFAGSGVKLQAEKSRPVMQA
notes: Name is printed in the order His-NOSIP-MBP; also called wildtype (WT) His-NOSIP-MBP; immobilized NOSIP; source: E. coli JM109, purified (Ni-NTA agarose, amylose resin, dialysis)
[2]
  binding result: binds

B3: GST-NOSIP (natural protein, UniProt Q9Y314 1-301, looked up)
chain: MTRHGKNCTAGAVYTYHEKKKDTAASGYGTQNIRLSRDAVKDFDCCCLSLQPCHDPVVTPDGYLYEREAILEYILHQKKEIARQMKAYEKQRGTRREEQKELQRAASQDHVRGFLEKESAIVSRPLNPFTAKALSGTSPDDVQPGPSVGPPSKDKDKVLPSFWIPSLTPEAKATKLEKPSRTVTCPMSGKPLRMSDLTPVHFTPLDSSVDRVGLITRSERYVCAVTRDSLSNATPCAVLRPSGAVVTLECVEKLIRKDMVDPVTGDKLTDRDIIVLQRGGTGFAGSGVKLQAEKSRPVMQA
notes: also called immobilized GST-NOSIP; source: E. coli JM109, purified (glutathione Sepharose, size exclusion chromatography)
[3]
  binding result: binds
[4]
  binding result: binds

B4: His-NOSIP (natural protein, UniProt Q9Y314 1-301, looked up)
chain: MTRHGKNCTAGAVYTYHEKKKDTAASGYGTQNIRLSRDAVKDFDCCCLSLQPCHDPVVTPDGYLYEREAILEYILHQKKEIARQMKAYEKQRGTRREEQKELQRAASQDHVRGFLEKESAIVSRPLNPFTAKALSGTSPDDVQPGPSVGPPSKDKDKVLPSFWIPSLTPEAKATKLEKPSRTVTCPMSGKPLRMSDLTPVHFTPLDSSVDRVGLITRSERYVCAVTRDSLSNATPCAVLRPSGAVVTLECVEKLIRKDMVDPVTGDKLTDRDIIVLQRGGTGFAGSGVKLQAEKSRPVMQA
notes: Lacks the MBP tag; source: E. coli JM109, purified (Ni-NTA agarose, size exclusion chromatography)
[5]
  binding result: binds
[6]
  Kd: 233 ± 60 nM
His-importin 13
  Kd: 417 ± 100 nM
